Measured values from US20170165337A1 (IMMATICS BIOTECHNOLOGIES, published 2017).

molecular target: T1, HLA-A*02:01 (human); assay: UV peptide-exchange ELISA
T1 construct: MHC class I monomer of the UV-ligand exchange assay; also called peptide-receptive MHC molecules; MHC class I
In short: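 Peptide-MHC complexes formed by UV-mediated exchange of a UV-cleavable peptide for the test peptide; exchange yield quantified by β2m ELISA. Diluted 100-fold, captured on streptavidin-coated plates 1 h at 37 °C, detected with HRP anti-β2m and TMB at 450 nm against refolded HLA-A*02:01 monomer standards (15-500 ng/ml).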

Binder | peptide exchange yield [%]
GLHQREIFL | 50 to 75
GLDDVTVEV | 20 to 50
GLLEVISALQL | 50 to 75
ALDTLEDDMTI | 50 to 75
GLSIFAQDLRL | 20 to 50
GLQAKIQEA | 50 to 75
FVPDTPVGV | 50 to 75
GLLRIIPYL | 50 to 75
ALLERTGYTL | 50 to 75
GLDDMKANL | 20 to 50
GQGEVLVYV | 50 to 75
FVLDHEDGLNL | 50 to 75
ALCDTLITV | 50 to 75
ALAASALPALV | 50 to 75
FVFGDENGTVSL | 50 to 75
GLQSGVDIGV | 50 to 75
FVYFIVREV | 50 to 75
GIIDGSPRL | 50 to 75
GLPSFLTEV | 50 to 75
GLLRASFLL | 20 to 50
GLLDAGKMYV | 50 to 75
GLKHDIARV | 50 to 75
GLDQQFAGLDL | 10 to 20

Next, values leading:

peptide exchange yield [%] | Binder
50 to 75 | ILIDKTSFV
50 to 75 | SLAGGLDDMKA
20 to 50 | ILGYMAHEHKV
50 to 75 | SLAHVAGCEL
50 to 75 | VIADLGLIRV
50 to 75 | ILDFGTFQL
50 to 75 | ILIFHSVAL
50 to 75 | ILFPLRFTL
50 to 75 | ILEPLNPLL
≥ 75 | HLMLHTAAL
20 to 50 | GVMDVNTAL
50 to 75 | WLVGQEFEL
50 to 75 | ILDLNTYNV
≥ 75 | ILVVIEPLL
50 to 75 | YIQQGIFSV
50 to 75 | ILDEIGADVQA
50 to 75 | KLLESVASA
20 to 50 | VLIEDELEEL
50 to 75 | ILNNEVFAI
50 to 75 | ILFNTQINI
20 to 50 | HQIEAVDGEEL
10 to 20 | SLIKYFLFV
20 to 50 | LLFATQITL
50 to 75 | HLYPGAVTI
